From PMC4882459

Legend:
[1] = target: Biotinylated C-reactive protein (human) (UniProt P02741); test: SPR; Biacore 3000; biotinylated CRP or SAP captured to 200 RU on streptavidin on a CM5 chip; ES-62 flowed at 30 ul/min in HBS pH 7.4 with 1 mM CaCl2 and 0.005% P20; regeneration with 3 mM EDTA; ka and kd calculated separately
[2] = target: ES-62 (Acanthocheilonema viteae); test: SEC; HPLC on a G4000SW column in HBSC buffer (1 mM CaCl2); ES-62 injected, with or without CRP at 20 ug/ml in the column buffer, or with EDTA

Biotinylated C-reactive protein (human), sequence (P02741 19-224): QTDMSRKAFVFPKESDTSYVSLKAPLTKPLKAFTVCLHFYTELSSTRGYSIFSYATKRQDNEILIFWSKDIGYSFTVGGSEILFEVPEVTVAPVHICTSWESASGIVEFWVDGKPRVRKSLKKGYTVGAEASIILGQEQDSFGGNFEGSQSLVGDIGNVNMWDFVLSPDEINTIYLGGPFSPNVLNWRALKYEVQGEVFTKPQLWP

Question: Which koff [1] does the source give for ES-62 (natural protein) here?
Answer: The koff was 0.0013 to 0.0014 s⁻¹.

Question: What about the kon [1] of the same substance?
Answer: The kon was 100000 to 1e+06 M⁻¹ s⁻¹.

Question: And the stoichiometry N [2]?
Answer: Its stoichiometry N is 4.
